# Assay results from the supplement of paper PMC10065799, “High-throughput profiling of sequence recognition by tyrosine kinases and SH2 domains using bacterial peptide display” (eLife, 2023).
# Tests used:
# SHP2-C SH2 = test: SH2 binding enrichment of the phosphorylated peptide, bacterial display (enrichment ratio); higher = better substrate or ligand; peptides without Tyr show the background
# c-Src SH2 = test: as above
# Grb2 SH2 = Grb2 SH2 (UniProt P62993); test: as above
# Fer (mouse) = test: phosphorylation enrichment, bacterial display (enrichment ratio); higher = better substrate or ligand; peptides without Tyr show the background
# c-Abl (mouse) = test: as above
# FGFR3 = FGFR3 (UniProt P22607); test: as above
# EPHB2 = EPHB2 (UniProt P29323); test: as above
# EPHB1 = EPHB1 (UniProt P54762); test: as above
# Sequence of EPHB1 (P54762 whole entry, looked up): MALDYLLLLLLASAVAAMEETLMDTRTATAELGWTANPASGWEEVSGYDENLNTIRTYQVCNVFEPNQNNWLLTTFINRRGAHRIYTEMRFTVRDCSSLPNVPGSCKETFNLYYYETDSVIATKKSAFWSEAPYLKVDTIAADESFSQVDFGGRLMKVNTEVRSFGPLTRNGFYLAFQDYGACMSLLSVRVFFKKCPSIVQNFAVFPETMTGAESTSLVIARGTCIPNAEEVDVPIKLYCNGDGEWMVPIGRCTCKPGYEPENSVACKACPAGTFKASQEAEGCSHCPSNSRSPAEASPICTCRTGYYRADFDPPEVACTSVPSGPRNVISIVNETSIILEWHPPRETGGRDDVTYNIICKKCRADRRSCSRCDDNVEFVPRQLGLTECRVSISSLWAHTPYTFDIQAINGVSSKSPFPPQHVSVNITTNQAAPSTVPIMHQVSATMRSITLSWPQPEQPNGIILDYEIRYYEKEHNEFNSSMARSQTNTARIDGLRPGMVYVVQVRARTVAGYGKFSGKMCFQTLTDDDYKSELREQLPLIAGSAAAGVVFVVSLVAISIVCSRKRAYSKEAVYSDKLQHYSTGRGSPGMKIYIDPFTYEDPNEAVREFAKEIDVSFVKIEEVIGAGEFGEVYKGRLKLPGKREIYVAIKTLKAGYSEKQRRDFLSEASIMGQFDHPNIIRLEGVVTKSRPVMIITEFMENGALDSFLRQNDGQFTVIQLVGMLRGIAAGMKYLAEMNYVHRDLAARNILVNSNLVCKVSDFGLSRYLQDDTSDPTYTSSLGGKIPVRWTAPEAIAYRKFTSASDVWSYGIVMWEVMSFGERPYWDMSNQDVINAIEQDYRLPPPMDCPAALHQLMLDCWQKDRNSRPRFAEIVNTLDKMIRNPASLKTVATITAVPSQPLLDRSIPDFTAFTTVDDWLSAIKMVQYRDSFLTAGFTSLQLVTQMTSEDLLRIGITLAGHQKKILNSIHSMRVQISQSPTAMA
# c-Src = test: as above
# Fes = Fes (UniProt P07332); test: as above
# Sequence of Fes (P07332 whole entry, looked up): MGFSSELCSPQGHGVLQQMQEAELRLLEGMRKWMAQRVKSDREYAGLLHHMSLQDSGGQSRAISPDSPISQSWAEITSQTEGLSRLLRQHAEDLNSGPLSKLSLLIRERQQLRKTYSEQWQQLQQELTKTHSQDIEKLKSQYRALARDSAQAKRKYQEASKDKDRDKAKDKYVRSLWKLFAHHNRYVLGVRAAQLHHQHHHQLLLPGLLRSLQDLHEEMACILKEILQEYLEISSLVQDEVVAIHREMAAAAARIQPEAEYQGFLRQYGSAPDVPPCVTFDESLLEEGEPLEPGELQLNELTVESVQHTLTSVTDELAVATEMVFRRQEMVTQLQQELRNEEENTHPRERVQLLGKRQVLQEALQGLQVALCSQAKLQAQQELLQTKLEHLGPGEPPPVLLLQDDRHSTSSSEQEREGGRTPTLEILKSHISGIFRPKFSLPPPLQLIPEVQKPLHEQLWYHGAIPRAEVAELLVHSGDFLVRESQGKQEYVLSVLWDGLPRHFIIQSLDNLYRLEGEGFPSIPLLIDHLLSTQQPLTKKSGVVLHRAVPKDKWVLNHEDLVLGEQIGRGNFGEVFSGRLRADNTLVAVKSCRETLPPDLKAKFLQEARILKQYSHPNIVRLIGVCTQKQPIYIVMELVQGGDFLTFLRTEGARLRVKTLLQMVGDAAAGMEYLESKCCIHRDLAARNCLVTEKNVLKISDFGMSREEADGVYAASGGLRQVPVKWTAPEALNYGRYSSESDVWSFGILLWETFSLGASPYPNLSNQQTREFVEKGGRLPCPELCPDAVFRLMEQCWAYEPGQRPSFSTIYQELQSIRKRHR
# AncSZ = test: as above
# MERTK = MERTK (UniProt Q12866); test: as above
# Hck = Hck (UniProt P08631); test: as above
# Sequence of Hck (P08631 whole entry, looked up): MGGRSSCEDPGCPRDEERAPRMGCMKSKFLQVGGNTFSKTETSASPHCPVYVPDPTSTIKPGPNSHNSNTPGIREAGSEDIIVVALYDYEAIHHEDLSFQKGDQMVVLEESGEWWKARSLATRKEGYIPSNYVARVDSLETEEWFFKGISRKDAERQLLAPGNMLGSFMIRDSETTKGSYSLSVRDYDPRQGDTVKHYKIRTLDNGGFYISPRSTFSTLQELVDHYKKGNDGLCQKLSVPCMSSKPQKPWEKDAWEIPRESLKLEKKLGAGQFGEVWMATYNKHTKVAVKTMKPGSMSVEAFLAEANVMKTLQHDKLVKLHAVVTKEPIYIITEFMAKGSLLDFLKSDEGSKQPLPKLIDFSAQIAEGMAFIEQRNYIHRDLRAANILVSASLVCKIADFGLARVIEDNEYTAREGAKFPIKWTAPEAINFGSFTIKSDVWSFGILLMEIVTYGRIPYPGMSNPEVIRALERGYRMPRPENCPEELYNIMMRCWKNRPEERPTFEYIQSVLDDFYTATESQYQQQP
# FGFR1 = FGFR1 (UniProt P11362); test: as above
# Sequence of FGFR1 (P11362 whole entry, looked up): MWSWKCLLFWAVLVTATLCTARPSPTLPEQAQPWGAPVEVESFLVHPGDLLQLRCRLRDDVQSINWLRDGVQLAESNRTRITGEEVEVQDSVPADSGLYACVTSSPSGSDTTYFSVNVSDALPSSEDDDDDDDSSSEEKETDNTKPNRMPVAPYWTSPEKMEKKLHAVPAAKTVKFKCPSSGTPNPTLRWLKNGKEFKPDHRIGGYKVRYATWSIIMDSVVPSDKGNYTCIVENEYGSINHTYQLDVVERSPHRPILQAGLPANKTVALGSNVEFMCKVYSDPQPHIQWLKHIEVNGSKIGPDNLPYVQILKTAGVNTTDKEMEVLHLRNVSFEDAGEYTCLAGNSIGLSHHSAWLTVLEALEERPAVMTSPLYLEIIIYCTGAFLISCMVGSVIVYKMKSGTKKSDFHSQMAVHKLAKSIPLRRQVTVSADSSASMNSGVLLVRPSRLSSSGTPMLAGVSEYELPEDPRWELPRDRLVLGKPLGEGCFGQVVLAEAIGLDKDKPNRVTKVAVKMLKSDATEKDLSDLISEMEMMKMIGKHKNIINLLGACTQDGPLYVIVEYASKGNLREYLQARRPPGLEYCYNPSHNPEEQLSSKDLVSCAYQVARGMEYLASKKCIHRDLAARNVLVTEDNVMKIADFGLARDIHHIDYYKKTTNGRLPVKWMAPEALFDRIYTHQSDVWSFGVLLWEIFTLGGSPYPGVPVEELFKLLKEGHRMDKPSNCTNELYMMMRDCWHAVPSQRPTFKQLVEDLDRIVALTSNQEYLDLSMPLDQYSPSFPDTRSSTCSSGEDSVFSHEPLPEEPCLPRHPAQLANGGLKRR
# Jak2 = Jak2 (UniProt O60674); test: as above
# Sequence of Jak2 (O60674 whole entry, looked up): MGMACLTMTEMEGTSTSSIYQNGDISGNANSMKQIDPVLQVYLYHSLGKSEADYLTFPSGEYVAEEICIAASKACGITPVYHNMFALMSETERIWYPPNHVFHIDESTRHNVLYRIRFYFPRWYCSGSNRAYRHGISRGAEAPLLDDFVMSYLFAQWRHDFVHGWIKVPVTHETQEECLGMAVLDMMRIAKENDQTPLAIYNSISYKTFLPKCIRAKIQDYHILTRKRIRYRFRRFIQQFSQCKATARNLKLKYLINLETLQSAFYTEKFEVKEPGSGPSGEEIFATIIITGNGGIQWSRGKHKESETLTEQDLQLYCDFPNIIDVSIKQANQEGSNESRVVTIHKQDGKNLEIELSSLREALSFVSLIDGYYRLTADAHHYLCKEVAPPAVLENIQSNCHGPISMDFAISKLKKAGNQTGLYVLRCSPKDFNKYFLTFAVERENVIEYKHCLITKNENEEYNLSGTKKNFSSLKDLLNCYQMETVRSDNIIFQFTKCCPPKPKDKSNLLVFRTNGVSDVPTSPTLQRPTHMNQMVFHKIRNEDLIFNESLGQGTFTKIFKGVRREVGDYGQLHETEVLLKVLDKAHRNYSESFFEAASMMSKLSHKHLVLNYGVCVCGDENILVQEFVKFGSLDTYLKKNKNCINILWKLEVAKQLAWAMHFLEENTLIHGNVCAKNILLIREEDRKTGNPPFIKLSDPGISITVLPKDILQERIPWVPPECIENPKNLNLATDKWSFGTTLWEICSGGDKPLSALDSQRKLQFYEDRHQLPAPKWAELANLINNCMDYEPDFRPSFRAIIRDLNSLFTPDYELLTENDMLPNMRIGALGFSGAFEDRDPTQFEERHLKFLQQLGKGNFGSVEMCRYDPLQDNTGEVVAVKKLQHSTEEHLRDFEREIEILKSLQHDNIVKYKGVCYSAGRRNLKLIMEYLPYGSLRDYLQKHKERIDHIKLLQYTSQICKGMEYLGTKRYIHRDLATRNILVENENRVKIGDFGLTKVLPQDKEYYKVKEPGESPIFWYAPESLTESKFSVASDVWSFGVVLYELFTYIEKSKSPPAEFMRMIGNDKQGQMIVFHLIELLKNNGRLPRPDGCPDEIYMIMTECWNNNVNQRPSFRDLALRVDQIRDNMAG
# Fyn = Fyn (UniProt P06241); test: as above
# Sequence of Fyn (P06241 whole entry, looked up, the tested form may be a part): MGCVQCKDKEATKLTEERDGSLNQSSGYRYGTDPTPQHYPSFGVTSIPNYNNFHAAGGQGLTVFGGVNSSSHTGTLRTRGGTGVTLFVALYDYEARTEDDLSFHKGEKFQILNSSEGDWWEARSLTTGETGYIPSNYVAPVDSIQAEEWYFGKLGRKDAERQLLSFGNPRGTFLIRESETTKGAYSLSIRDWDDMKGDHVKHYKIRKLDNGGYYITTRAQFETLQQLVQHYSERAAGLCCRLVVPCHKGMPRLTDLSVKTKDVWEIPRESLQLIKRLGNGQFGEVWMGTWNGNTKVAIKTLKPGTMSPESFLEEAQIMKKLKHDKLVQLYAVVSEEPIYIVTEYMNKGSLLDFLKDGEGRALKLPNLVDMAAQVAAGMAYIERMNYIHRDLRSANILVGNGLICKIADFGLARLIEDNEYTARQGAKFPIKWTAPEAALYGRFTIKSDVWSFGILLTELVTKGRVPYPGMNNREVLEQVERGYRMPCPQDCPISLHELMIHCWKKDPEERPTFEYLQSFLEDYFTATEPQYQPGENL
# 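Throughout, for SH2 binding enrichment of the phosphorylated peptide, bacterial display: peptide library displayed on the E. coli surface as eCPX fusions, selected cells deep-sequenced, score is each peptide's frequency after selection divided by its frequency in the input.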
# 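Throughout, for phosphorylation enrichment, bacterial display: 11-residue human phosphosite peptides and single-mutation variants displayed on the E. coli surface, counted by deep sequencing, each peptide's frequency after selection divided by its frequency in the unselected input library; frequency after pTyr selection over input frequency; kinase dosed for 20-30% of maximal phosphorylation in three min.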
# Sequence of Grb2 SH2 (P62993 whole entry, looked up): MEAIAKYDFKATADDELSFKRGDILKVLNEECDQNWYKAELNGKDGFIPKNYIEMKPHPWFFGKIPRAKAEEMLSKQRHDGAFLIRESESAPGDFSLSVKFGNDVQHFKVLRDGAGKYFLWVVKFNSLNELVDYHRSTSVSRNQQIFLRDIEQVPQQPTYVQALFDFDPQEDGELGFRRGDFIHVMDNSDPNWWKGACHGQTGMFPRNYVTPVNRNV
Sequence,SH2 binding enrichment (SHP2-C SH2),SH2 binding enrichment (c-Src SH2),SH2 binding enrichment (Grb2 SH2),phosphorylation enrichment (Fer (mouse)),phosphorylation enrichment (c-Abl (mouse)),phosphorylation enrichment (FGFR3),phosphorylation enrichment (EPHB2),phosphorylation enrichment (EPHB1),phosphorylation enrichment (c-Src),phosphorylation enrichment (Fes),phosphorylation enrichment (AncSZ),phosphorylation enrichment (MERTK),phosphorylation enrichment (Hck),phosphorylation enrichment (FGFR1),phosphorylation enrichment (Jak2),phosphorylation enrichment (Fyn)
AALKLYHVSDS [VIL1_Y256],1.18,0.434,0.613,0.427,0.537,0.672,0.558,0.493,0.417,0.766,0.815,0.847,0.623,0.511,0.635,0.561
ACEVLYNIAFM [NCF2_Y125],0.592,0.434,0.768,5.68,2.57,1.49,0.859,0.983,2.17,1.53,2.01,2.03,2.45,0.976,1.11,1.97
ADCRYYAFPQM [GAMT_Y223],0.656,1.84,0.862,8.45,7.97,8.74,10.8,9.71,3.76,1.33,4.46,9.72,3.1,11,5.86,2.75
ADLAKYICENQ [ALB_Y287],0.754,0.607,0.868,0.459,0.83,0.788,0.63,0.672,0.505,1.13,0.979,0.386,0.627,0.485,1.09,0.461
ADNQRYAFMPL [TMEM87B_Y460_N456D],0.649,2.15,1.02,0.502,0.781,0.641,0.663,1.07,0.452,0.812,0.728,6.67,0.628,0.733,0.673,0.503
AEEKEYHAEGG [EGFR_Y869],0.748,0.471,0.924,0.572,0.653,0.596,0.593,0.623,0.486,1.05,1.09,0.403,0.451,0.474,0.908,0.536
AEKPKYQISNI [TJP1_Y1602_N1605S],0.516,0.503,0.739,0.377,0.54,0.409,0.376,0.286,0.36,0.544,0.896,0.333,0.41,0.358,0.401,0.372
AEPDIYQEKLS [USP54_Y1233],0.785,0.674,1.19,0.485,0.692,0.623,0.508,0.531,0.568,1.08,0.994,0.405,0.702,0.457,1.01,0.58
AEPNIYQEKLS [USP54_Y1233_D1231N],0.916,0.808,1.12,0.34,0.802,0.505,0.462,0.401,0.679,0.748,0.763,0.339,0.778,0.442,0.948,0.727
AFLQTYSHEVS [PCDHGA5_Y753],0.873,0.57,1.01,0.531,0.518,0.683,0.64,0.584,0.812,0.971,0.845,0.585,0.551,0.442,0.957,0.602
AGADGYDYLAP [FOXL2_Y186_G187D],0.478,4.34,0.89,0.62,0.655,0.783,0.587,0.585,0.388,0.99,3.5,0.647,0.903,0.611,0.997,0.534
AKKIKYFEGVS [PRKDC_Y682],0.83,0.479,0.79,0.42,0.328,0.332,0.44,0.324,0.387,0.547,0.429,0.383,0.447,0.295,0.427,0.321
AKKVFYMIETR [SHH_Y253_V254M],1.01,1.06,1.46,0.561,0.673,0.881,0.622,0.606,0.472,1.24,1.15,0.386,0.444,0.448,1.02,0.439
AKKVFYVIETR [SHH_Y253],1.03,0.775,1.2,0.401,0.627,0.765,0.582,0.569,0.412,1.26,1.12,0.361,0.422,0.542,1.01,0.465
